The results in this text go back to US20110244473A1.

The target in the experiment is Death Receptor 5 (human) (UniProt O14763). Put plainly: cell-based or functional assay.
Sequence of UniProt O14763 (O14763 other isoform, or with tags, fused parts or gaps limits assumed): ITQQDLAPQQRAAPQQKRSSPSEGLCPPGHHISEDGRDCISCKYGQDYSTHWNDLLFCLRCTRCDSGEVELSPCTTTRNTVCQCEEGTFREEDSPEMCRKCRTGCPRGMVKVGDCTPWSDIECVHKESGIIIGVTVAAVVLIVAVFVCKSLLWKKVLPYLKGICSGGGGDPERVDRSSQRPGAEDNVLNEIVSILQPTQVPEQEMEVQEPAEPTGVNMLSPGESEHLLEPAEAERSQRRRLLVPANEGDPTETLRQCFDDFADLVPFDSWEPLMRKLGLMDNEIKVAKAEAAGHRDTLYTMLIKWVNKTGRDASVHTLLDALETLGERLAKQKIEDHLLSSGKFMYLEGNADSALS

The substance “Flag-tagged human recombinant soluble Apo2L/TRAIL cross-linked by anti-FLAG M2 antibody (from UniProt P50591 114-281) (ligand)” displayed a rate of DR5 endocytosis of 2 fold and a receptor internalizing over 2 hr (fraction of the receptor) of 0.33.
The substance “human recombinant soluble Apo2L/TRAIL, non-tagged (trimeric) (from UniProt P50591 114-281) (ligand)” returned a rate of DR5 endocytosis of 2 fold and a receptor internalizing over 2 hr (fraction of the receptor) of 0.33.
